{"source": "paper PMC9482650", "about": "“Quantitative fragmentomics allow affinity mapping of interactomes” (Nature Communications, 2022)"}
{"target": "T1, LIN7B, Q9HAP6", "T1 sequence (Q9HAP6 88-185, limits assumed, looked up)": "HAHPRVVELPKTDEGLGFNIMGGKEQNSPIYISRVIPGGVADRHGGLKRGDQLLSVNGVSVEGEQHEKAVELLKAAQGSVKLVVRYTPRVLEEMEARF", "experiment": "holdup assay", "set-up": "key: below the threshold = too weak to quantify, mostly under pKd 3.1 to 4", "conditions": "plain residues with an end cap or a label only (N-terminal biotin on a linker: ahx)"}
{"binder": "TEAKLTETNA", "note": "[MYO18A, Q92614]", "pKd": "below the threshold"}
{"target": "DLG2_2, Q15700", "sequence (Q15700 189-283)": "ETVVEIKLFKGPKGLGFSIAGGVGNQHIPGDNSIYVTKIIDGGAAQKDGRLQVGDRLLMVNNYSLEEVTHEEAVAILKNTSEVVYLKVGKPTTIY", "experiment": "holdup assay", "set-up": "key: below the threshold = too weak to quantify, mostly under pKd 3.1 to 4", "conditions": "plain residues with an end cap or a label only (N-terminal biotin on a linker: ahx)"}
{"binder": "TEAKLTETNA", "note": "[MYO18A, Q92614]", "pKd": "below the threshold"}
{"target": "AHNAK1, Q09666", "sequence (Q09666 4-100)": "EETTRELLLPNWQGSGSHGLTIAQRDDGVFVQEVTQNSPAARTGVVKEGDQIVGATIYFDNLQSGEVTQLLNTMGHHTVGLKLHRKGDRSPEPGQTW", "experiment": "holdup assay", "set-up": "key: below the threshold = too weak to quantify, mostly under pKd 3.1 to 4", "conditions": "plain residues with an end cap or a label only (N-terminal biotin on a linker: ahx)"}
{"binder": "TEAKLTETNA", "note": "[MYO18A, Q92614]", "pKd": "below the threshold"}
{"target": "T2, HTRA3, P83110", "T2 sequence (P83110 354-453, limits assumed, looked up)": "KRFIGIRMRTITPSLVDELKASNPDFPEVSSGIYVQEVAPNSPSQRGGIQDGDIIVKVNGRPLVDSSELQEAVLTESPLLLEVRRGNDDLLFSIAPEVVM", "experiment": "holdup assay", "set-up": "key: below the threshold = too weak to quantify, mostly under pKd 3.1 to 4", "conditions": "plain residues with an end cap or a label only (N-terminal biotin on a linker: ahx)"}
{"binder": "TEAKLTETNA", "note": "[MYO18A, Q92614]", "pKd": "below the threshold"}
{"target": "T3, GRIP1_7, Q9Y3R0", "T3 sequence (Q9Y3R0 999-1096, limits assumed, looked up)": "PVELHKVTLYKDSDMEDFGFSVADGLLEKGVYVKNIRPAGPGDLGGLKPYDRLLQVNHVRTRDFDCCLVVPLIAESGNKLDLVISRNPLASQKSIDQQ", "experiment": "holdup assay", "set-up": "key: below the threshold = too weak to quantify, mostly under pKd 3.1 to 4", "conditions": "plain residues with an end cap or a label only (N-terminal biotin on a linker: ahx)"}
{"binder": "TEAKLTETNA", "note": "[MYO18A, Q92614]", "pKd": "below the threshold"}
{"target": "T4, RADIL, Q96JH8", "T4 sequence (Q96JH8 971-1071, limits assumed, looked up)": "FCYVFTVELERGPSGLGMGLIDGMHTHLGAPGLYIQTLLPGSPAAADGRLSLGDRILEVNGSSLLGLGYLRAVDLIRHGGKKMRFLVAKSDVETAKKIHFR", "experiment": "holdup assay", "set-up": "key: below the threshold = too weak to quantify, mostly under pKd 3.1 to 4", "conditions": "plain residues with an end cap or a label only (N-terminal biotin on a linker: ahx)"}
{"binder": "TEAKLTETNA", "note": "[MYO18A, Q92614]", "pKd": "below the threshold"}
{"target": "T5, TJP3_3, O95049", "T5 sequence (O95049 375-456, limits assumed, looked up)": "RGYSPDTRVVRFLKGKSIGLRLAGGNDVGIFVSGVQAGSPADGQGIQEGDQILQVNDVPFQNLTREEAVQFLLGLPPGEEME", "experiment": "holdup assay", "set-up": "key: below the threshold = too weak to quantify, mostly under pKd 3.1 to 4", "conditions": "plain residues with an end cap or a label only (N-terminal biotin on a linker: ahx)"}
{"binder": "TEAKLTETNA", "note": "[MYO18A, Q92614]", "pKd": "below the threshold"}
{"target": "LDB3, O75112", "sequence (O75112 1-94)": "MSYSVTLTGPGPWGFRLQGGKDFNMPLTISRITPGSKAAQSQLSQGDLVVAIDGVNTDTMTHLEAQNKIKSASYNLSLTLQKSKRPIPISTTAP", "experiment": "holdup assay", "set-up": "key: below the threshold = too weak to quantify, mostly under pKd 3.1 to 4", "conditions": "plain residues with an end cap or a label only (N-terminal biotin on a linker: ahx)"}
{"binder": "TEAKLTETNA", "note": "[MYO18A, Q92614]", "pKd": "below the threshold"}
{"target": "MAGI2_4, Q86UL8", "sequence (Q86UL8 772-865)": "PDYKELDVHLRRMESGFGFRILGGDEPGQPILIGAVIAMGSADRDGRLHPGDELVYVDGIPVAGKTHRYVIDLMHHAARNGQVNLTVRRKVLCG", "experiment": "holdup assay", "set-up": "key: below the threshold = too weak to quantify, mostly under pKd 3.1 to 4", "conditions": "plain residues with an end cap or a label only (N-terminal biotin on a linker: ahx)"}
{"binder": "TEAKLTETNA", "note": "[MYO18A, Q92614]", "pKd": "below the threshold"}
{"target": "NHERF4_2, Q86UT5", "sequence (Q86UT5 220-308)": "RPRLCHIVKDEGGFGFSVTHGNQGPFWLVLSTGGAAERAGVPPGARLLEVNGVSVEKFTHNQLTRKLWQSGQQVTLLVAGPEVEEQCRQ", "experiment": "holdup assay", "set-up": "key: below the threshold = too weak to quantify, mostly under pKd 3.1 to 4", "conditions": "plain residues with an end cap or a label only (N-terminal biotin on a linker: ahx)"}
{"binder": "TEAKLTETNA", "note": "[MYO18A, Q92614]", "pKd": "below the threshold"}
{"target": "MAGI1_2, Q96QZ7", "sequence (Q96QZ7 456-580)": "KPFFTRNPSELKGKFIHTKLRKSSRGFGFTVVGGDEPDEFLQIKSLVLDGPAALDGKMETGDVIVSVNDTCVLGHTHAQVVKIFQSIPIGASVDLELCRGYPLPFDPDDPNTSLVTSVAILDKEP", "experiment": "holdup assay", "set-up": "key: below the threshold = too weak to quantify, mostly under pKd 3.1 to 4", "conditions": "plain residues with an end cap or a label only (N-terminal biotin on a linker: ahx)"}
{"binder": "TEAKLTETNA", "note": "[MYO18A, Q92614]", "pKd": "below the threshold"}
{"target": "T6, SIPA1L2, Q9P2F8", "T6 sequence (Q9P2F8 945-1036, limits assumed, looked up)": "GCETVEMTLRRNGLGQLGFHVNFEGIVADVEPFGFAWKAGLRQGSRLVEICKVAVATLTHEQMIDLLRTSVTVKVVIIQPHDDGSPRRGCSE", "experiment": "holdup assay", "set-up": "key: below the threshold = too weak to quantify, mostly under pKd 3.1 to 4", "conditions": "plain residues with an end cap or a label only (N-terminal biotin on a linker: ahx)"}
{"binder": "TEAKLTETNA", "note": "[MYO18A, Q92614]", "pKd": "below the threshold"}
{"target": "T7, TX1BP3, O14907", "T7 sequence (O14907 10-122, limits assumed, looked up)": "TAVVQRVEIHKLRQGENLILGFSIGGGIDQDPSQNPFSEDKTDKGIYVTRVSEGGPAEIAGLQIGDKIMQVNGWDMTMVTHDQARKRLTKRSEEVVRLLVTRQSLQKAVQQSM", "experiment": "holdup assay", "set-up": "key: below the threshold = too weak to quantify, mostly under pKd 3.1 to 4", "conditions": "plain residues with an end cap or a label only (N-terminal biotin on a linker: ahx)"}
{"binder": "TEAKLTETNA", "note": "[MYO18A, Q92614]", "pKd": "below the threshold"}
{"target": "T8, SNTB1, Q13884", "T8 sequence (Q13884 107-205, limits assumed, looked up)": "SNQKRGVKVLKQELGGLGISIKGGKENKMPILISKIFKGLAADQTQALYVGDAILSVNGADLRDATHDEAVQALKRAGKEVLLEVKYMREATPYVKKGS", "experiment": "holdup assay", "set-up": "key: below the threshold = too weak to quantify, mostly under pKd 3.1 to 4", "conditions": "plain residues with an end cap or a label only (N-terminal biotin on a linker: ahx)"}
{"binder": "TEAKLTETNA", "note": "[MYO18A, Q92614]", "pKd": "below the threshold"}
{"target": "DLG5_1, Q8TDM6", "sequence (Q8TDM6 617-713)": "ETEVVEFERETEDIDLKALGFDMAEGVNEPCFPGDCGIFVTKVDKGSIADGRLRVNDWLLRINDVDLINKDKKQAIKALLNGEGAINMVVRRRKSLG", "experiment": "holdup assay", "set-up": "key: below the threshold = too weak to quantify, mostly under pKd 3.1 to 4", "conditions": "plain residues with an end cap or a label only (N-terminal biotin on a linker: ahx)"}
{"binder": "TEAKLTETNA", "note": "[MYO18A, Q92614]", "pKd": "below the threshold"}
{"target": "Inadl_6, Q8NI35", "sequence (Q8NI35 1058-1167)": "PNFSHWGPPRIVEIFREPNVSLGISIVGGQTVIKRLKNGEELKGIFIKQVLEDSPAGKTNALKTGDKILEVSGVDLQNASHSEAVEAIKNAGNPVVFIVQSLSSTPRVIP", "experiment": "holdup assay", "set-up": "key: below the threshold = too weak to quantify, mostly under pKd 3.1 to 4", "conditions": "plain residues with an end cap or a label only (N-terminal biotin on a linker: ahx)"}
{"binder": "TEAKLTETNA", "note": "[MYO18A, Q92614]", "pKd": "below the threshold"}
{"target": "T9, HTRA4, P83105", "T9 sequence (P83105 378-476, limits assumed, looked up)": "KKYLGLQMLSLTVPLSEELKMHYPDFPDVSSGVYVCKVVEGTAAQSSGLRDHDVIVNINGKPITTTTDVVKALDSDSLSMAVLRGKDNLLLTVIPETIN", "experiment": "holdup assay", "set-up": "key: below the threshold = too weak to quantify, mostly under pKd 3.1 to 4", "conditions": "plain residues with an end cap or a label only (N-terminal biotin on a linker: ahx)"}
{"binder": "TEAKLTETNA", "note": "[MYO18A, Q92614]", "pKd": "below the threshold"}
{"target": "GRID2IP_2, A4D2P6", "sequence (A4D2P6 272-370)": "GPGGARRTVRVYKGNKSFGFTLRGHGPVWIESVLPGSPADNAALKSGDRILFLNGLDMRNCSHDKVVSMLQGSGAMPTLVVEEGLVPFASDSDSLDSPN", "experiment": "holdup assay", "set-up": "key: below the threshold = too weak to quantify, mostly under pKd 3.1 to 4", "conditions": "plain residues with an end cap or a label only (N-terminal biotin on a linker: ahx)"}
{"binder": "TEAKLTETNA", "note": "[MYO18A, Q92614]", "pKd": "below the threshold"}
{"target": "TJP1_3, Q07157", "sequence (Q07157 416-512)": "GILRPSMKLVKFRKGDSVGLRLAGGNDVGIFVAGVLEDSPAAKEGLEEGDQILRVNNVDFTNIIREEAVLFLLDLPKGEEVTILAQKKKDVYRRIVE", "experiment": "holdup assay", "set-up": "key: below the threshold = too weak to quantify, mostly under pKd 3.1 to 4", "conditions": "plain residues with an end cap or a label only (N-terminal biotin on a linker: ahx)"}
{"binder": "TEAKLTETNA", "note": "[MYO18A, Q92614]", "pKd": "below the threshold"}
{"target": "T10, NHERF3_4, Q5T2W1", "T10 sequence (Q5T2W1 373-468, limits assumed, looked up)": "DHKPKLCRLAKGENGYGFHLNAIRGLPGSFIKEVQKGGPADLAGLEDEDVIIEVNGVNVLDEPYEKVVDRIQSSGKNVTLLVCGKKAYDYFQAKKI", "experiment": "holdup assay", "set-up": "key: below the threshold = too weak to quantify, mostly under pKd 3.1 to 4", "conditions": "plain residues with an end cap or a label only (N-terminal biotin on a linker: ahx)"}
{"binder": "TEAKLTETNA", "note": "[MYO18A, Q92614]", "pKd": "below the threshold"}
{"target": "T11, ARHGEF11, O15085", "T11 sequence (O15085 42-136, limits assumed, looked up)": "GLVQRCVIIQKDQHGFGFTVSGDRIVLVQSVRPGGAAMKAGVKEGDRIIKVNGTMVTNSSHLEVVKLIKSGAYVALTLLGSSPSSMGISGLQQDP", "experiment": "holdup assay", "set-up": "key: below the threshold = too weak to quantify, mostly under pKd 3.1 to 4", "conditions": "plain residues with an end cap or a label only (N-terminal biotin on a linker: ahx)"}
{"binder": "TEAKLTETNA", "note": "[MYO18A, Q92614]", "pKd": "below the threshold"}
{"target": "T12, RAPGEF6, Q8TEU7", "T12 sequence (Q8TEU7 525-625, limits assumed, looked up)": "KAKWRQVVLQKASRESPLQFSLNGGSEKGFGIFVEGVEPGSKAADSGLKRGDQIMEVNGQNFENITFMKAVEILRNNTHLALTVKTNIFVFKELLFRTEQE", "experiment": "holdup assay", "set-up": "key: below the threshold = too weak to quantify, mostly under pKd 3.1 to 4", "conditions": "plain residues with an end cap or a label only (N-terminal biotin on a linker: ahx)"}
{"binder": "TEAKLTETNA", "note": "[MYO18A, Q92614]", "pKd": "below the threshold"}
{"target": "T13, SNTA1, Q13424", "T13 sequence (Q13424 82-180, limits assumed, looked up)": "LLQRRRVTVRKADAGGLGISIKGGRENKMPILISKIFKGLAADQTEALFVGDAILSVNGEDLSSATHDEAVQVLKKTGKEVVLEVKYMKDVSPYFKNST", "experiment": "holdup assay", "set-up": "key: below the threshold = too weak to quantify, mostly under pKd 3.1 to 4", "conditions": "plain residues with an end cap or a label only (N-terminal biotin on a linker: ahx)"}
{"binder": "TEAKLTETNA", "note": "[MYO18A, Q92614]", "pKd": "below the threshold"}
{"target": "DLG1_1, Q12959", "experiment": "holdup assay", "set-up": "key: below the threshold = too weak to quantify, mostly under pKd 3.1 to 4", "conditions": "plain residues with an end cap or a label only (N-terminal biotin on a linker: ahx)"}
{"binder": "TEAKLTETNA", "note": "[MYO18A, Q92614]", "pKd": "below the threshold"}
{"target": "DLG4_3, P78352", "sequence (P78352 306-403)": "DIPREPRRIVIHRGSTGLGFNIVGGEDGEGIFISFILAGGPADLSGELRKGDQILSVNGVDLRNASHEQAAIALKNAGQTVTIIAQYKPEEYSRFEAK", "experiment": "holdup assay", "set-up": "key: below the threshold = too weak to quantify, mostly under pKd 3.1 to 4", "conditions": "plain residues with an end cap or a label only (N-terminal biotin on a linker: ahx)"}
{"binder": "TEAKLTETNA", "note": "[MYO18A, Q92614]", "pKd": "below the threshold"}
